Positions count from the first letter of the chain named. Blank lines part the entries; values can stand above or below the binder they belong to.
Tests used:
[1] = target: T1, Human IL-5 amino acid sequence with his tag (rhIL-5-his) (human, UniProt P05113 20-134); assay: cell-based or functional assay
T1 sequence: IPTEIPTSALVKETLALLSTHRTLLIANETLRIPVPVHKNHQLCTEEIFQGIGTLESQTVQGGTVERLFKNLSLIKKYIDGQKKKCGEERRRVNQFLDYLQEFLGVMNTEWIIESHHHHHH

[2] = target: T1, Human IL-5 amino acid sequence with his …; assay: cell-based or functional assay; remark: listed apart in the source
[3] = target: T1, Human IL-5 amino acid sequence with his …; assay: FACS blocking of biotin-IL-5 binding to IL-5Rα/β CHO-S cells
Protocol: Particular method: CHO-S-IL-5Rα and β were cultivated with CD-CHO containing […] and 25 ng/ml zeozin, and the concentration during cell culture was no more than 3×10⁶ cells/ml. The IL-5Rα/β-CHOS cells in good condition were centrifuged (1000 rpm, 5 min), washed once with 10% FBS in PBS, counted, the cell concentration was adjusted to 4×10⁶ cells/ml, and 25 μl of which was added to 96-well plate with round bottom. Antibodies to be tested were diluted with PBS solution containing 10% FBS, with an initial concentration of 200 μg/ml, and 8 gradients were obtained by 1:10 dilution. 25 μl of 100 ng/ml IL-5 labeled with Biotin Labeling Kit (Dojindo Chemical, LK03), was uniformly mixed with 50 μl of each diluted antibody, added into the 96-well plate to which the cells has been added, and incubated at 4° C. for 1 hour. After the incubation, centrifuged at 4° C. (400 g, 5 min), the supernatant was discarded, centrifuged and washed with 200 μl of pre-cooled PBS, repeat twice; PE-Avidin secondary antibody diluted at 1:1333 was added and incubated in darkness at […] for 40 min, the supernatant was discarded after being centrifuged at 4° C. […] The plate was read on instrument, and IC50 values for IL-5 antibodies to block the binding between IL-5 and IL-5Rα/β were calculated based on the fluorescence signal values.

[4] = target: T1, Human IL-5 amino acid sequence with his …; assay: Biacore T200 SPR, antibody captured on Protein A chip, antigen in flow, 1:1 Langmuir fit
Protocol: The affinity between the test humanized IL-5 antibodies and human IL-5 was determined by using Biacore T200 (GE) instrument.
Molecules to be tested were affinity-captured by Protein A biosensor chip, and then the antigen (prepared in Example 1) was flowed through the surface of the chip, and the reaction signals were detected in real time by using Biacore T200 instrument to obtain binding and dissociation curves. After the dissociation of each cycle of experiment was completed, the biosensor chip was washed and regenerated with glycine-hydrochloric acid regeneration solution (pH 1.5). The data was fitted to the (1:1) Langmuir model by using BIAevaluation version 4.1 GE software, and the affinity values were obtained as shown in Table 14.

IC50 of inhibition of IL-5-induced proliferation of TF1 cells [1]: 0.38 nM
B1: h1773-007 (antibody, human IgG1, kappa, V domains shown)
VH: EVQLVESGGGLVQPGGSLKLSCAASGFTISNTYIHWVKQASGKGLEWIGRIDPAVGDTKHGPKFQGRFTISADDSKNTAYLQMNSLKTEDTAVYYCFRYGIYPDHWGQGTLVTVSS
VL: DIQLTQSPSSLSASVGDRVTITCSASSSVNYIYWYQQKPGKSPKPWIYLTATLASGVPSRFSGSGSGTDFTLTISSLQPEDFATYYCQQWNSYPYTFGGGTKVEIKR

IC50 of inhibition of IL-5-induced proliferation of TF1 cells [1]: 0.3 nM
IC50 of blocking IL-5-induced eosinophil adhesion [2]: 0.0118 µg/mL
B2: Hu39D10 (antibody, human IgG4 S228P, kappa, V domains shown)
VH: EVQLVESGGGLVQPGGSLRLSCAVSGLSLTSNSVNWIRQAPGKGLEWVGLIWSNGDTDYNSAIKSRFTISRDTSKSTVYLQMNSLRAEDTAVYYCAREYYGYFDYWGQGTLVTVSS
VL: DIQMTQSPSSLSASVGDRVTITCLASEGISSYLAWYQQKPGKAPKLLIYGANSLQTGVPSRFSGSGSATDYTLTISSLQPEDFATYYCQQSYKFPNTFGQGTKVEVKR

IC50 of inhibition of IL-5-induced proliferation of TF1 cells [1]: 0.16 nM
IC50 of blocking IL-5-induced eosinophil adhesion [2]: 0.0212 µg/mL
B3: h1780-017 (antibody, human IgG1, kappa, V domains shown)
VH: EVQLVQSGAEVKKPGASVKVSCKASGYTFTEYLIHWVRQAPGQGLEWIGYINPYSGGTVYNEKFKSRATLTVDKSISTAYMEFSRLRSDDTAVYYCARDGGYSDPLDYWGQGTMVTVSS
VL: DTVLTQSPATLSLSPGERATLSCRASEGLTSYMHWYQQKPGQAPRLLIYKASNLASGVPARFSGSGSGTDFTLTISSLEPEDFATYFCQQNWNDPWTFGGGTKVEIKR

IC50 of inhibition of IL-5-induced proliferation of TF1 cells [1]: 0.34 nM
B4: h1706-006 (antibody, human IgG1, kappa, V domains shown)
VH: EVQLVESGGGLVQPGGSLRLSCAASGFTFSHYYMAWVRQAPGKGLEWVSSINYEGNSAYYGDSVKGRFTISRDNSKNTLYLQMNSLRAEDTAVYYCATETLRESLDYWGQGTMVTVSS
VL: DIQMTQSPSSVSASVGDRVTITCRASQDIGNYLSWYQQKPGKSPKLLIYSASNLEVGVPSRFSGSGSGTDFTLTISSLQPEDFATYYCLQHKQFPRTFGGGTKVEIKR

IC50 of inhibition of IL-5-induced proliferation of TF1 cells [1]: 0.25 nM
B5: h1705-007 (antibody, human IgG1, kappa, V domains shown)
VH: B4 VH with N52S, N56D, S57I, A58T, T98S, E99Q, L105F, M113L
VL: B4 VL with G30A, S50G, A51T, G66R, H91D, Q93E

IC50 of inhibition of IL-5-induced proliferation of TF1 cells [1]: 0.28 nM
B6: h1706-007 (antibody, human IgG1, kappa, V domains shown)
VH: B4 VH with S49T, V93T
VL: B4 VL

IC50 of inhibition of IL-5-induced proliferation of TF1 cells [1]: 0.3 nM
B7: h1706-004 (antibody, human IgG1, kappa, V domains shown)
VH: B4 VH with S49T, V93T
VL: B4 VL with S43A

IC50 of inhibition of IL-5-induced proliferation of TF1 cells [1]: 0.3 nM
B8: h1705-004 (antibody, human IgG1, kappa, V domains shown)
VH: B4 VH with N52S, N56D, S57I, A58T, T98S, E99Q, L105F, M113L
VL: B4 VL with G30A, S43A, S50G, A51T, H91D, Q93E

IC50 of inhibition of IL-5-induced proliferation of TF1 cells [1]: 0.31 nM
B9: h1706-003 (antibody, human IgG1, kappa, V domains shown)
VH: B4 VH
VL: B4 VL with S43A

IC50 of inhibition of IL-5-induced proliferation of TF1 cells [1]: 0.3 nM
B10: h1705-010 (antibody, human IgG1, kappa, V domains shown)
VH: B4 VH with N52S, N56D, S57I, A58T, T98S, E99Q, L105F, M113L
VL: B4 VL with G30A, L47V, S50G, A51T, G66R, T69S, F71Y, Y87F, H91D, Q93E

IC50 of inhibition of IL-5-induced proliferation of TF1 cells [1]: 0.3 nM
B11: h1705-005 (antibody, human IgG1, kappa, V domains shown)
VH: B4 VH with S49T, N52S, N56D, S57I, A58T, V93T, T98S, E99Q, L105F, M113L
VL: B4 VL with G30A, S43A, S50G, A51T, H91D, Q93E

IC50 of inhibition of IL-5-induced proliferation of TF1 cells [1]: 0.28 nM
B12: h1705-011 (antibody, human IgG1, kappa, V domains shown)
VH: B4 VH with S49T, N52S, N56D, S57I, A58T, V93T, T98S, E99Q, L105F, M113L
VL: B4 VL with G30A, L47V, S50G, A51T, G66R, T69S, F71Y, Y87F, H91D, Q93E

IC50 of inhibition of IL-5-induced proliferation of TF1 cells [1]: 0.2 nM
IC50 of blocking IL-5-induced eosinophil adhesion [2]: 0.00485 µg/mL
B13: h1705-008 (antibody, human IgG1, kappa, V domains shown)
VH: B4 VH with S49T, N52S, N56D, S57I, A58T, V93T, T98S, E99Q, L105F, M113L
VL: B4 VL with G30A, S50G, A51T, G66R, H91D, Q93E

IC50 of inhibition of IL-5-induced proliferation of TF1 cells [1]: 0.25 nM
IC50 of blocking IL-5-induced eosinophil adhesion [2]: 0.0043 µg/mL
B14: h1706-009 (antibody, human IgG1, kappa, V domains shown)
VH: B4 VH
VL: B4 VL with L47M, F71Y, Y87F

IC50 of inhibition of IL-5-induced proliferation of TF1 cells [1]: 0.2 nM
IC50 [3]: 0.0496 µg/mL
Kd [4]: 0.412 nM
B15: h1779-014 (antibody, human IgG1, kappa, V domains shown)
VH: EVQLVQSGAEVKKPGASVKVSCKASGYTFTDYIIHWVKQAPGQGLEWIGYFNPNSGGSNYNENFKRKATMTADKSISTAYLEFSRLRSEDTAVYYCARRIAWDHWYFDFWGQGTMVTVSS
VL: DIQMTQSPSSLSASVGDRVTITCLASEGISNDVAWYQQKPGKSPKLLIYAASRLQDGVPSRFSGSGSGTDFTFTISSLQPEDIATYYCQQGYKTPLTFGQGTKLEIKR
notes: h1779_VH.1D + h1779_VL.1A; IgG1 (YTE) / kappa constant regions
